From patent EP4541814A1 (Cytiva BioProcess R&D AB, dated 2025)

Molecular target: AAV9 viral particles (adeno-associated virus 9)
Test: SPR (Biacore 8K+), fusion protein amine-coupled to CM5, AAV9 2E12 vp/ml, report point late binding

B1: Candidate 4A-3: vh118 fusion protein (SEQ ID NO:162) (VHH)
VHH: QVQLQQSGGGSVQAGGSLRLSCTISGRTLSDYTMGWFRQRPGKEREFVAAISWSGAYTKYADSVKGRFTISRDNAKNTVYLQMNSLKPEDTAVYYCAAGPTGLLSKKATPADYDYWGQGTQVTVSS
Binding capacity AAV9 (2E12 vp/ml) (RU): 12400 RU
